Reference: patent US20130230533A1 (Regeneron, published 2013)

Legend:
[1] = target: T1, Monomeric monkey CD48-mmH (monkey); experiment: SPR (Biacore), antibody captured by anti-Fc, CD48 in solution, 25 C
T1 construct: Soluble monkey CD48 with a myc-myc-hexa-histidine C-terminal tag; the whole entry is the construct; also called mfCD48-mmH
T1 chain: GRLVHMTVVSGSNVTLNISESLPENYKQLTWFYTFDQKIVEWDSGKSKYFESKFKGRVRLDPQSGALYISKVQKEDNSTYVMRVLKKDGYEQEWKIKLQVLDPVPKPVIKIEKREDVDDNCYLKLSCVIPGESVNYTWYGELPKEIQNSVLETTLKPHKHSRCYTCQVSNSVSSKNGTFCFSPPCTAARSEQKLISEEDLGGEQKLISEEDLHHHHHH
Experimental: (§1) Measurements were conducted on a T100-2 BIACORE™ instrument (Biacore Life Sciences division of GE Healthcare, Piscataway, N.J.). Antibodies (either with mouse Fc [designated “H2M” or “H3M”] or human IgG4 Fc [designated “H4H”]) were captured through an anti-Fc chip surface, and CD48 was flowed over the surface either in a monomeric (soluble CD48 expressed with a myc-myc-hexa-histidine C-terminal tag [mmH]) or dimeric (soluble CD48 expressed with a C-terminal Fc fusion [mFc]) format.
(§2) The soluble CD48 was applied to the flow cell in separate injections at different concentrations, and kinetic association (kₐ) and dissociation (kd) rate constants were determined by fits to the kinetic binding data using Biacore software. Binding dissociation equilibrium constants and dissociation half-times were calculated from the kinetic rate constants as: KD=kd/kₐ; t_{1/2}=(ln 2/kd) (units: ka=M⁻¹*s⁻¹; kd=s⁻¹; KD=M; T½=min) (Tables 3-6).

Dimeric monkey CD48-mFc [2] = target: T2, Dimeric monkey CD48-mFc (monkey); experiment: as above
T2 construct: Soluble monkey CD48 with a C-terminal Fc fusion [mFc]; the whole entry is the construct
T2 chain: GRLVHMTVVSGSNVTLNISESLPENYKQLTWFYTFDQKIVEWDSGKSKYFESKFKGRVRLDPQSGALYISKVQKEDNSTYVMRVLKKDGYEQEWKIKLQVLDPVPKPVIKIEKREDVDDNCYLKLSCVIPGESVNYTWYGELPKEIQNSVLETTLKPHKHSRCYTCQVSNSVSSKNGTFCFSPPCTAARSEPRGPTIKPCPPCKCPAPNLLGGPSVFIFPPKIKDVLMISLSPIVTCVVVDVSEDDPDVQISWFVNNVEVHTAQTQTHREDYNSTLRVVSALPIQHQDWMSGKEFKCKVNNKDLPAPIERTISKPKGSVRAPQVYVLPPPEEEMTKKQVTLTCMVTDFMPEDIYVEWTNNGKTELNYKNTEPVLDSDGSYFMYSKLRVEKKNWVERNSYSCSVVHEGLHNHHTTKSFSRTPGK
Experimental: as §1, §2

Monomeric human CD48-mmH = target: T3, Monomeric human CD48-mmH (human); experiment: SPR (Biacore), antibody captured by anti-Fc, CD48 in solution, 37 C
T3 chain: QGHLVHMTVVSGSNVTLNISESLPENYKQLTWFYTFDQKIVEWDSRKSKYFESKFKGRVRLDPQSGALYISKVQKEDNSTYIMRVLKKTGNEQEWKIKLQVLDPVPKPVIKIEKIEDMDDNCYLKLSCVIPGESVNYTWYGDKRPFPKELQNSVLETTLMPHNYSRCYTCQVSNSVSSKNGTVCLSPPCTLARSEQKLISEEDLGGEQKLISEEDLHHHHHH
In short: (§3)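 Antibodies (mouse or human IgG4 Fc) captured on anti-Fc surface; soluble CD48, monomeric (myc-myc-His tag) or dimeric (Fc fusion), injected at several concentrations. ka and kd from kinetic fits; KD=kd/ka, t½=ln2/kd.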

[3] = target: T1, Monomeric monkey CD48-mmH; experiment: as above
In short: as §3

Dimeric human CD48-mFc = target: T4, Dimeric human CD48-mFc (human); experiment: as above
T4 construct: the whole entry is the construct; also called hCD48-mFc
T4 chain: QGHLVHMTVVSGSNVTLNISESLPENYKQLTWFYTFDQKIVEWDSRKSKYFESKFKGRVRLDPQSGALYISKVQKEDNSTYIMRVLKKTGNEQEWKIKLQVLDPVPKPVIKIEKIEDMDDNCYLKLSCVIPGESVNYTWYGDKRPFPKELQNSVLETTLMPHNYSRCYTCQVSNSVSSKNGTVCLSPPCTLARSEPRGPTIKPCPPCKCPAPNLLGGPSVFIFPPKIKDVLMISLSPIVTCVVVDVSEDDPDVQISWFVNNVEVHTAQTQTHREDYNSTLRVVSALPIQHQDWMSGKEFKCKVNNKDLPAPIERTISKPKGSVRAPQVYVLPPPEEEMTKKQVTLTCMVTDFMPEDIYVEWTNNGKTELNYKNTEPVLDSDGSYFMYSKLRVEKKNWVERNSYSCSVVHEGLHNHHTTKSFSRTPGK
In short: as §3

Dimeric monkey CD48-mFc [4] = target: T2, Dimeric monkey CD48-mFc; experiment: as above
In short: as §3

[5] = target: T5, biotinylated dimeric human CD48 protein expressed as a fusion with mouse IgG2a Fc (human, biotinylated); experiment: competition ELISA; blocks bio-hCD48-mFc binding to coated h2B4-mFc
T5 construct: also called bio-hCD48-mFc; Dimeric human CD48-mFc
T5 chain: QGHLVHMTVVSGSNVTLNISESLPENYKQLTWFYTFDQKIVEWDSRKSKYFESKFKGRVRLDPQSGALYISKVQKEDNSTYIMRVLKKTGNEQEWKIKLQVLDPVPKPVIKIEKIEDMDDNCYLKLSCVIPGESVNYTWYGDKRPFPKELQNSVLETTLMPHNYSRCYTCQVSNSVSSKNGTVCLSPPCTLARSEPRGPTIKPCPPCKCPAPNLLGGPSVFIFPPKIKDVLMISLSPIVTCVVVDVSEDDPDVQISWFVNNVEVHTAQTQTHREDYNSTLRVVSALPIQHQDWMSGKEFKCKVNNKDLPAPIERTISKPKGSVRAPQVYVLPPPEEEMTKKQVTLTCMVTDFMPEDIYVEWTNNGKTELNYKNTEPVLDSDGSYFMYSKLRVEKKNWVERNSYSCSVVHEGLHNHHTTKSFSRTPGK
Experimental: (§4) The ability of human anti-CD48 monoclonal antibodies to block human CD48 and monkey CD48 binding to the human cognate ligand, human 2B4, was measured using a competition sandwich ELISA (Table 8). Constant amounts of biotinylated dimeric human CD48 protein expressed as a fusion with mouse IgG2a Fc (“bio-hCD48-mFc” [SEQ ID NO: 387]) or monomeric monkey CD48 expressed with a tag consisting of 2 myc and one 6-His epitopes (“mfCD48-mmH” [SEQ ID NO: 386]) were separately titrated with varying amounts of antibodies. These antibody-protein complexes were incubated (1 hr, 25° C.) before being transferred to microtiter plates coated with a dimeric construct expressing the human 2B4 receptor fused to a either human IgG1 (h2B4-hFc [R&D Systems, Inc., Minneapolis, Minn., Cat. No. 1039-2B]) or mouse IgG2a Fc (h2B4-mFc [SEQ ID NO: 389). After a 1 hr at 25° C. the wells were washed and bound human CD48 was detected with streptavidin conjugated with horse-radish peroxidase (HRP), and monkey CD48 was detected with an HRP conjugated anti-myc polyclonal antibody. The ELISA was developed with a TMB solution to produce a colorimetric reaction and quenched with sulfuric acid before reading absorbance at 450 nm on a Victor X5 plate reader. Sigmoidal dose response curves were fit to the data using Prism™ software. […] (Tables 8 and 9, NB=no binding observed)

[6] = target: T6, monomeric monkey CD48 expressed with a tag consisting of 2 myc and one 6-His epitopes (monkey); experiment: competition ELISA; blocks mfCD48-mmH binding to coated h2B4-mFc
T6 construct: also called mfCD48-mmH; Monomeric monkey CD48-mmH
T6 chain: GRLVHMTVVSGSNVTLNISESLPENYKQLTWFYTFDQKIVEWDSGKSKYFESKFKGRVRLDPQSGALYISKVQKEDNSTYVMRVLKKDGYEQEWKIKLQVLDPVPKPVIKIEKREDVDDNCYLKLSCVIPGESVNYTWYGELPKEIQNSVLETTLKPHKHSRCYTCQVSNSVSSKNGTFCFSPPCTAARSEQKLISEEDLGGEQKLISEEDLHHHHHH
Experimental: as §4

B1: H4H1789Pa (antibody, V domains shown)
VH: EVQLLESGGGLVHPGGSLRLSCAASGFTFGGYAMSWVRQAPGKGLEWVSLISGSGGSTYYADSVKGRFTIFRDNSKNTLYLQMISLRAEDSAVYYCAKYSNYDYFDPWGQGTLVTVSS
VL: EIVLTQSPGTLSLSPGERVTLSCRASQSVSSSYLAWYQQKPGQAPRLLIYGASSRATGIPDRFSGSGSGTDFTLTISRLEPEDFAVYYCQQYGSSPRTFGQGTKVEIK
notes: Human IgG4 Fc (H4H)
- Kd [1]: 3.31 nM
- T½ [1]: 0.133 h
- koff [1]: 0.00138 s⁻¹
- kon [1]: 416000 M⁻¹ s⁻¹
- Kd (Dimeric monkey CD48-mFc [2]): 0.423 nM
- T½ (Dimeric monkey CD48-mFc [2]): 0.7 h
- koff (Dimeric monkey CD48-mFc [2]): 0.000276 s⁻¹
- kon (Dimeric monkey CD48-mFc [2]): 651000 M⁻¹ s⁻¹
- Kd (Monomeric human CD48-mmH): 8.97 nM
- T½ (Monomeric human CD48-mmH): 0.1 h
- koff (Monomeric human CD48-mmH): 0.00179 s⁻¹
- kon (Monomeric human CD48-mmH): 199000 M⁻¹ s⁻¹
- Kd [3]: 4.71 nM
- T½ [3]: 0.1 h
- koff [3]: 0.00206 s⁻¹
- kon [3]: 437000 M⁻¹ s⁻¹
- Kd (Dimeric human CD48-mFc): 0.161 nM
- T½ (Dimeric human CD48-mFc): 5.4 h
- koff (Dimeric human CD48-mFc): 3.57e-05 s⁻¹
- kon (Dimeric human CD48-mFc): 221000 M⁻¹ s⁻¹
- Kd (Dimeric monkey CD48-mFc [4]): 0.776 nM
- T½ (Dimeric monkey CD48-mFc [4]): 0.25 h
- koff (Dimeric monkey CD48-mFc [4]): 0.000768 s⁻¹
- kon (Dimeric monkey CD48-mFc [4]): 990000 M⁻¹ s⁻¹

B2: H4H1781P (antibody, human IgG4, V domains shown)
VH: QVQLVESGGGVVQPGRSLRLSCAASGFTFSNYGMHWVRQAPGKGLEWVAVIWYDDSNKNYADSVKGRFTISRDNSKNTLYLQMNSLRVEDTAVYYCARDRWTYSHFFEYWGQGTLVTVSS
VL: DIQMTQSPSSVSASVGDRVTITCRASQGISSWLAWYQQKPGKAPNLLIYAASSLQSGVPSRFGGSGSGTDFSLTISGLQPEDFATYYCQQANSFPRTFGQGTKVEIK
notes: Human IgG4 Fc (H4H)
- Kd [1]: 0.262 nM
- T½ [1]: 2.47 h
- koff [1]: 7.8e-05 s⁻¹
- kon [1]: 298000 M⁻¹ s⁻¹
- Kd (Dimeric monkey CD48-mFc [2]): 0.0356 nM
- T½ (Dimeric monkey CD48-mFc [2]): 9.03 h
- koff (Dimeric monkey CD48-mFc [2]): 2.13e-05 s⁻¹
- kon (Dimeric monkey CD48-mFc [2]): 599000 M⁻¹ s⁻¹
- Kd (Monomeric human CD48-mmH): 0.448 nM
- T½ (Monomeric human CD48-mmH): 1.9 h
- koff (Monomeric human CD48-mmH): 0.000101 s⁻¹
- kon (Monomeric human CD48-mmH): 226000 M⁻¹ s⁻¹
- Kd [3]: 0.875 nM
- T½ [3]: 0.633 h
- koff [3]: 0.000307 s⁻¹
- kon [3]: 350000 M⁻¹ s⁻¹
- Kd (Dimeric human CD48-mFc): 0.0603 nM
- T½ (Dimeric human CD48-mFc): 3.93 h
- koff (Dimeric human CD48-mFc): 4.89e-05 s⁻¹
- kon (Dimeric human CD48-mFc): 812000 M⁻¹ s⁻¹
- Kd (Dimeric monkey CD48-mFc [4]): 0.0755 nM
- T½ (Dimeric monkey CD48-mFc [4]): 2.92 h
- koff (Dimeric monkey CD48-mFc [4]): 6.61e-05 s⁻¹
- kon (Dimeric monkey CD48-mFc [4]): 875000 M⁻¹ s⁻¹

B3: H4H1713N (antibody, human IgG4, V domains shown)
VH: QVQLVQSGAEVKKPGASVKVSCKASGHTFTNYYIHWVRQAPGQGLEWMGITNPNDGNTRYAQKFQGRISMTWDTSTSTVFMELSSLKSEDTAVYYCAGLRYWFFDLWGRGTPVTVSS
VL: DIQMTQSPSSVSASVGDRVTITCRASQDISSWLAWYQQKPGKAPNLLIFAASSLQSGVPSRFSGSGSGTDFTLTISSLQPEDFGTYYCQQTDNFPRTFGQGTKVEIN
notes: Human IgG4 Fc (H4H) form of 1713N
- IC50 [5]: 0.018 nM
- IC50 [6]: 0.0034 nM
